Where “and” joins values, the source holds several entries; their conditions need not be identical. Identical values can stand only once.
Key:
[1] = target: recombinant soluble NDV HN ectodomain including the stalk domain, without oligomerization domain (HN-M) (Newcastle disease virus); experiment: SEC; Superdex 200 Increase 10/300 GL column, freshly purified NDV HN proteins
[2] = target: recombinant soluble NDV HN ectodomain with tetrabrachion tetramerization domain (HN-TE) (not stated | Newcastle disease virus); experiment: as above

In the case of “recombinant soluble NDV HN ectodomain including the stalk domain, without oligomerization domain (HN-M) (domain or fragment)”, the stoichiometry N [1] is reported as 2 and 4.

In the case of “recombinant soluble NDV HN ectodomain with tetrabrachion tetramerization domain (HN-TE)”, the stoichiometry N [2] is reported as 4.

Source: article PMC11302929
